Source: the supplement of paper PMC10567573

B1: RIPK4 (parent)
chain: VIDLFDEQGLSALHLAAQGRHAQT

Variants of: B1
Test: protein stability index of a GFP-peptide fusion (GPS, HEK-293T) (PSI 1-6); higher = more stable
Details: c terminus: a fixed tail appended
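Also: lentivirally expressed fusions sorted by FACS into six bins by GFP to DsRed ratio, PSI derived from sequencing read proportions per bin multiplied by bin number.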

Variant | protein stability index
VIDLFDEQGLSALHLAAQGRHAIT [Q23I] | 2.16
VIDLFDEQGLSALHLAAQGRHAET [Q23E] | 3.48
VIDLFDEQGLSALHLAAQGRHAVT [Q23V] | 2.53
VIDLFDEQGLSALHLAAQGRHAKT [Q23K] | 3.17
VIDLFDEQGLSALHLAAQGRHAST [Q23S] | 2.6
VIDLFDEQGLSALHLAAQGRHACT [Q23C] | 2.59
VIDLFDEQGLSALHLAAQGRHAHT [Q23H] | 2.49
VIDLFDEQGLSALHLAAQGRHALT [Q23L] | 2.52
VIDLFDEQGLSALHLAAQGRHAWT [Q23W] | 1.93
VIDLFDEQGLSALHLAAQGRHAAT [Q23A] | 2.67
VIDLFDEQGLSALHLAAQGRHAYT [Q23Y] | 2.06
VIDLFDEQGLSALHLAAQGRHAFT [Q23F] | 1.76
VIDLFDEQGLSALHLAAQGRHAPT [Q23P] | 2.66
VIDLFDEQGLSALHLAAQGRHAGT [Q23G] | 2.8
VIDLFDEQGLSALHLAAQGRHANT [Q23N] | 2.84
VIDLFDEQGLSALHLAAQGRHADT [Q23D] | 3.69
VIDLFDEQGLSALHLAAQGRHART [Q23R] | 3.49
VIDLFDEQGLSALHLAAQGRHAMT [Q23M] | 1.84
VIDLFDEQGLSALHLAAQGRHATT [Q23T] | 2.72
VIDLFDEQGLSALHLIAQGRHAQT [A16I] | 2.35
VIDLFDEQGLSALHLWAQGRHAQT [A16W] | 1.51
VIDLFDEQGLSALHLLAQGRHAQT [A16L] | 1.85
VIDLFDEQGLSALHLNAQGRHAQT [A16N] | 3.46
VIDLFDEQGLSALHLVAQGRHAQT [A16V] | 2.01

Variant | protein stability index
VIDLFDEQGLSALHLPAQGRHAQT [A16P] | 3.42
VIDLFDEQGLSALHLCAQGRHAQT [A16C] | 2.59
VIDLFDEQGLSALHLFAQGRHAQT [A16F] | 1.99
VIDLFDEQGLSALHLDAQGRHAQT [A16D] | 3.55
VIDLFDEQGLSALHLEAQGRHAQT [A16E] | 3.2
VIDLFDEQGLSALHLGAQGRHAQT [A16G] | 3.27
VIDLFDEQGLSALHLTAQGRHAQT [A16T] | 3.11
VIDLFDEQGLSALHLYAQGRHAQT [A16Y] | 2.08
VIDLFDEQGLSALHLKAQGRHAQT [A16K] | 2.98
VIDLFDEQGLSALHLRAQGRHAQT [A16R] | 2.42
VIDLFDEQGLSALHLSAQGRHAQT [A16S] | 3.15
VIDLFDEQGLSALHLMAQGRHAQT [A16M] | 2.4
VIDLFDEQGLSALHLHAQGRHAQT [A16H] | 2.83
VIDLFDEQGLSALHLQAQGRHAQT [A16Q] | 2.77
VIDLFDEQGLSALHLAAKGRHAQT [Q18K] | 2.17
VIDLFDEQGLSALHLAADGRHAQT [Q18D] | 3.42
VIDLFDEQGLSALHLAAYGRHAQT [Q18Y] | 2.22
VIDLFDEQGLSALHLAAAGRHAQT [Q18A] | 2.27
VIDLFDEQGLSALHLAAWGRHAQT [Q18W] | 2.88
VIDLFDEQGLSALHLAACGRHAQT [Q18C] | 2.3
VIDLFDEQGLSALHLAAGGRHAQT [Q18G] | 2.9
VIDLFDEQGLSALHLAAVGRHAQT [Q18V] | 2.3
VIDLFDEQGLSALHLAAIGRHAQT [Q18I] | 2.51
VIDLFDEQGLSALHLAALGRHAQT [Q18L] | 1.85

Variant | protein stability index
VIDLFDEQGLSALHLAARGRHAQT [Q18R] | 3.06
VIDLFDEQGLSALHLAATGRHAQT [Q18T] | 2.36
VIDLFDEQGLSALHLAANGRHAQT [Q18N] | 2.88
VIDLFDEQGLSALHLAAFGRHAQT [Q18F] | 2.01
VIDLFDEQGLSALHLAAMGRHAQT [Q18M] | 2.15
VIDLFDEQGLSALHLAAHGRHAQT [Q18H] | 2.18
VIDLFDEQGLSALHLAAPGRHAQT [Q18P] | 2.82
VIDLFDEQGLSALHLAAEGRHAQT [Q18E] | 3.19
VIDLFDEQGLSALHLAASGRHAQT [Q18S] | 2.64
VIDLFDEQGLSALHLAAQGRHAQI [T24I] | 2.47
VIDLFDEQGLSALHLAAQGRHAQW [T24W] | 1.86
VIDLFDEQGLSALHLAAQGRHAQY [T24Y] | 1.91
VIDLFDEQGLSALHLAAQGRHAQP [T24P] | 2.41
VIDLFDEQGLSALHLAAQGRHAQG [T24G] | 3.15
VIDLFDEQGLSALHLAAQGRHAQD [T24D] | 3.76
VIDLFDEQGLSALHLAAQGRHAQR [T24R] | 3.38
VIDLFDEQGLSALHLAAQGRHAQN [T24N] | 2.92
VIDLFDEQGLSALHLAAQGRHAQC [T24C] | 2.57
VIDLFDEQGLSALHLAAQGRHAQK [T24K] | 3.13
VIDLFDEQGLSALHLAAQGRHAQM [T24M] | 2.63
VIDLFDEQGLSALHLAAQGRHAQA [T24A] | 2.5
VIDLFDEQGLSALHLAAQGRHAQL [T24L] | 2.09
VIDLFDEQGLSALHLAAQGRHAQE [T24E] | 4
VIDLFDEQGLSALHLAAQGRHAQS [T24S] | 2.51

Variant | protein stability index
VIDLFDEQGLSALHLAAQGRHAQV [T24V] | 2.69
VIDLFDEQGLSALHLAAQGRHAQF [T24F] | 1.86
VIDLFDEQGLSALHLAAQGRHAQH [T24H] | 2.38
VIDLFDEQGLSALHLAAQGRHAQQ [T24Q] | 2.51
VIDLFDEQGLSALHLAAQGQHAQT [R20Q] | 3.29
VIDLFDEQGLSALHLAAQGFHAQT [R20F] | 2.38
VIDLFDEQGLSALHLAAQGTHAQT [R20T] | 3.14
VIDLFDEQGLSALHLAAQGHHAQT [R20H] | 2.8
VIDLFDEQGLSALHLAAQGGHAQT [R20G] | 2.94
VIDLFDEQGLSALHLAAQGVHAQT [R20V] | 2.54
VIDLFDEQGLSALHLAAQGKHAQT [R20K] | 3.53
VIDLFDEQGLSALHLAAQGEHAQT [R20E] | 3.7
VIDLFDEQGLSALHLAAQGYHAQT [R20Y] | 2.06
VIDLFDEQGLSALHLAAQGNHAQT [R20N] | 3.02
VIDLFDEQGLSALHLAAQGDHAQT [R20D] | 3.82
VIDLFDEQGLSALHLAAQGSHAQT [R20S] | 3.26
VIDLFDEQGLSALHLAAQGLHAQT [R20L] | 2.34
VIDLFDEQGLSALHLAAQGAHAQT [R20A] | 2.66
VIDLFDEQGLSALHLAAQGPHAQT [R20P] | 2.66
VIDLFDEQGLSALHLAAQGCHAQT [R20C] | 2.6
VIDLFDEQGLSALHLAAQGWHAQT [R20W] | 2.02
VIDLFDEQGLSALHLAAQGIHAQT [R20I] | 2.46
